# Molecular target: Bcl-xL, Q07817
# Assay: peptide SPOT array, c-Myc-tagged receptor at 1 uM or 100 nM, anti-c-Myc-Cy3
# Sequence of Bcl-xL, Q07817 (Q07817 1-209): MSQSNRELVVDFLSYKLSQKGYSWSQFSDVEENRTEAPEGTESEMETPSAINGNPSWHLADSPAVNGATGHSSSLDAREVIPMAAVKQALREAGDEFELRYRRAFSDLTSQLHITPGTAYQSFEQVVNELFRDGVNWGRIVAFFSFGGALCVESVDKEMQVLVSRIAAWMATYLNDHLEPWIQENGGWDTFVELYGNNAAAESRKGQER
row,Binder,SPOT signal as a fraction of Bim BH3's signal on the same receptor and array
1,RAEIEKMAEKINDIAYEMESRRTYLQ [C3orf15],0.03
2,PHQFDGVPDKLIQALYQVKYNSKKMK,0.48
3,FDNAMLRARRLYQLAYDTYQEFEEAY [GH2],0.04
4,MDYVGGYALCLDMTARDVQDECKKKG [FAHD1],0.03
5,DISALTASNLDKKYAEKYSGILEGPV [FIGN],0.02
6,WDEMNVLAHGLLQLGQGLREHAERTR [ANGPTL4],0.04
7,GERLRQSGERLRQSGERFKKSISNAA [MURC],0.44
8,VYILRKAARRLAQVLRAAGVRVGLLS [CACNA1G],0.67
9,KNGHREVIRQLLRAGIEINRQTKTGT [CASKIN2],0.23
10,RTNNYQLSDEDRKNGVELTSLRQKVA [GRIPAP1],0.05
11,VPFATELHERLAKDSEKLKEEIGKEL [APOA4],0.02
12,SRELEEISERLEEAGGATSVQIEMNK [MYH6],0.02
13,YGKVKFTAEELSNMASELAKYGLQLP [IQGAP3],0.05
14,LDDVKILANGLLQLGHGLKDFVHKTK [ANGPTL3],0.04
15,RMNLQTMVDTLQEAAQEADAIQEEMN [IFFO2],0.02
16,DGVLSFIHHQIIELARDCLTKSRDGL [MAST1],0.03
17,PHQFDGVPDKLIQAAYQVKYNSKKMK,0.69
18,VAALEQAAYKLDAYSKKLEAKYKKLE [BLOC1S2],0.25
19,LFQLKFTAKQLEKLAKKAEKDSKAEQ [CHMP1A],0.18
20,TEEMKHNVEKLNELSKNLNRAFAEFE [DNAH3],0.02
21,EMNLQDHIESISKVAEVAGKEYAIEQ [DNAH1],0.02
22,PFDCRDYAVVLRKYLDKIYSISMKHP [FOLH1],0.44
23,FGTTLKNCRHLLECAKELDVQIIGVK [AZIN1],0.03
24,LSSISELSARLHLWAFKMDYETTEKE [FHOD3],0.03
25,PFDCRDYAVVDRKYADKIYNISMKHP [FOLH1B],0.36
26,DTIFHRAAVRLRDLLGAILRHARRQA [BRPF3],0.55
27,GFANHDVVEVDRNAGQVVHLTLVRRK [INADL],0.08
28,RQKIQRTARKLFGLSVRCRHNPNHQL [DBC1],0.69
29,NRGYYDVAKQLLAAGAEVNTKGLDDD [ANKRD11],0.03
30,DFEARKAAIEIARLAERAQQKTLTSA [C4orf22],0.04

# More lines, now with the values ahead:
row,SPOT signal as a fraction of Bim BH3's signal on the same receptor and array,Binder
1,0.02,VGNVDECGKKLVEVARRCRDEAIAAC [XXXX]
2,0.58,RAELTGLARRLADRARKLQETNLRAV
3,0.03,NKELSELIEQLQKNADQVEKNIVDTE [PPL]
4,0.13,KVFLNKAADFIEELSSLFKSHSSKRI [MYPN]
5,0.02,QGDVQMAVSVLIVLGERVRKDIDEQT [WDR24]
6,1.4,HRNTRNLAAFDGKASDLLRFPVKQLY
7,0.91,HRNTRNLAAFLGKASDLLRFPVKQLY
8,0.03,TGGLPELASRLTRISAVLLEGMNKET [TCP11L2]
9,0.62,EVRSSQFARKLWRSLRRISQVSSGET [NBEAL2]
10,0.03,LTKAERLSKELLQCGRIIKEEWIEIE [TTC23]
11,0.41,FTGNNTAVQEDKRVSEQFTATFRRKA [TUBB4Q]
12,0.19,FLRINTIAMRLLAYALDYWSKGQLKA [PANK2]
13,0.03,FSEFIGMIQEIQQAAERLERNFVDSR [RNF123]
14,0.17,DISLSNSGFKLVNFLCDYHQYRDKFS [PION]
15,0.03,FERVEQMCIQDKEVGDRVNYIKRSLQ [TRPM7]
16,0.48,ATKRETAATFLKKVLKEFGFQNNGFS [NPLOC4]
17,0.05,EGTKIVLGKQDIESADEVRRKSLVLK [TAF1]
18,0.03,VTQLRSLVIDLERTAKELDTNTLKNA [TRIM40]
19,0.02,VENTTDLASILIKDADRLNSGCYELK [TTN]
20,0.16,FVDINPLTGIILKAAKRFQINIYVKK [SCARB2]
21,0.21,DLSSTFVSLADRKVGDWPLSARREKG [TTC31]
22,0.08,GHIYLGAVNRIYKLSSDLKVLVTHET [PLXNA4]
23,0.22,LKELDLSGNSDSHSAVKSLCKTLRRP [NLRP1]
24,0.51,RAELTGLARRDADRARKLQETNLRAV
25,0.05,PVQVQQYIKKLYILGGEVAESAQKCT [PAXIP1]

# — article PMC4072508, “Genome-Wide Prediction and Validation of Peptides That Bind Human Prosurvival Bcl-2 Proteins” (PLoS Computational Biology, 2014)
